B1: Dual specificity mitogen-activated protein kinase kinase 6 (Homo sapiens), P52564 (parent)
chain: MSQSKGKKRNPGLKIPKEAFEQPQTSSTPPRDLDSKACISIGNQNFEVKADDLEPIMELGRGAYGVVEKMRHVPSGQIMAVKRIRATVNSQEQKRLLMDLDISMRTVDCPFTVTFYGALFREGDVWICMELMDTSLDKFYKQVIDKGQTIPEDILGKIAVSIVKALEHLHSKLSVIHRDVKPSNVLINALGQVKMCDFGISGYLVDSVAKTIDAGCKPYMAPERINPELNQKGYSVKSDIWSLGITMIELAILRFPYDSWGTPFQQLKQVVEEPSPQLPADKFSAEFVDFTSQCLKKNSKERPTYPELMQHPFFTLHESKGTDVASFVKLILGD

This assay covers variants of B1. As to conditions: with lrrk2_human LRRK2, Q5S007.
lrrk2_human LRRK2, Q5S007, sequence (Q5S007 whole entry): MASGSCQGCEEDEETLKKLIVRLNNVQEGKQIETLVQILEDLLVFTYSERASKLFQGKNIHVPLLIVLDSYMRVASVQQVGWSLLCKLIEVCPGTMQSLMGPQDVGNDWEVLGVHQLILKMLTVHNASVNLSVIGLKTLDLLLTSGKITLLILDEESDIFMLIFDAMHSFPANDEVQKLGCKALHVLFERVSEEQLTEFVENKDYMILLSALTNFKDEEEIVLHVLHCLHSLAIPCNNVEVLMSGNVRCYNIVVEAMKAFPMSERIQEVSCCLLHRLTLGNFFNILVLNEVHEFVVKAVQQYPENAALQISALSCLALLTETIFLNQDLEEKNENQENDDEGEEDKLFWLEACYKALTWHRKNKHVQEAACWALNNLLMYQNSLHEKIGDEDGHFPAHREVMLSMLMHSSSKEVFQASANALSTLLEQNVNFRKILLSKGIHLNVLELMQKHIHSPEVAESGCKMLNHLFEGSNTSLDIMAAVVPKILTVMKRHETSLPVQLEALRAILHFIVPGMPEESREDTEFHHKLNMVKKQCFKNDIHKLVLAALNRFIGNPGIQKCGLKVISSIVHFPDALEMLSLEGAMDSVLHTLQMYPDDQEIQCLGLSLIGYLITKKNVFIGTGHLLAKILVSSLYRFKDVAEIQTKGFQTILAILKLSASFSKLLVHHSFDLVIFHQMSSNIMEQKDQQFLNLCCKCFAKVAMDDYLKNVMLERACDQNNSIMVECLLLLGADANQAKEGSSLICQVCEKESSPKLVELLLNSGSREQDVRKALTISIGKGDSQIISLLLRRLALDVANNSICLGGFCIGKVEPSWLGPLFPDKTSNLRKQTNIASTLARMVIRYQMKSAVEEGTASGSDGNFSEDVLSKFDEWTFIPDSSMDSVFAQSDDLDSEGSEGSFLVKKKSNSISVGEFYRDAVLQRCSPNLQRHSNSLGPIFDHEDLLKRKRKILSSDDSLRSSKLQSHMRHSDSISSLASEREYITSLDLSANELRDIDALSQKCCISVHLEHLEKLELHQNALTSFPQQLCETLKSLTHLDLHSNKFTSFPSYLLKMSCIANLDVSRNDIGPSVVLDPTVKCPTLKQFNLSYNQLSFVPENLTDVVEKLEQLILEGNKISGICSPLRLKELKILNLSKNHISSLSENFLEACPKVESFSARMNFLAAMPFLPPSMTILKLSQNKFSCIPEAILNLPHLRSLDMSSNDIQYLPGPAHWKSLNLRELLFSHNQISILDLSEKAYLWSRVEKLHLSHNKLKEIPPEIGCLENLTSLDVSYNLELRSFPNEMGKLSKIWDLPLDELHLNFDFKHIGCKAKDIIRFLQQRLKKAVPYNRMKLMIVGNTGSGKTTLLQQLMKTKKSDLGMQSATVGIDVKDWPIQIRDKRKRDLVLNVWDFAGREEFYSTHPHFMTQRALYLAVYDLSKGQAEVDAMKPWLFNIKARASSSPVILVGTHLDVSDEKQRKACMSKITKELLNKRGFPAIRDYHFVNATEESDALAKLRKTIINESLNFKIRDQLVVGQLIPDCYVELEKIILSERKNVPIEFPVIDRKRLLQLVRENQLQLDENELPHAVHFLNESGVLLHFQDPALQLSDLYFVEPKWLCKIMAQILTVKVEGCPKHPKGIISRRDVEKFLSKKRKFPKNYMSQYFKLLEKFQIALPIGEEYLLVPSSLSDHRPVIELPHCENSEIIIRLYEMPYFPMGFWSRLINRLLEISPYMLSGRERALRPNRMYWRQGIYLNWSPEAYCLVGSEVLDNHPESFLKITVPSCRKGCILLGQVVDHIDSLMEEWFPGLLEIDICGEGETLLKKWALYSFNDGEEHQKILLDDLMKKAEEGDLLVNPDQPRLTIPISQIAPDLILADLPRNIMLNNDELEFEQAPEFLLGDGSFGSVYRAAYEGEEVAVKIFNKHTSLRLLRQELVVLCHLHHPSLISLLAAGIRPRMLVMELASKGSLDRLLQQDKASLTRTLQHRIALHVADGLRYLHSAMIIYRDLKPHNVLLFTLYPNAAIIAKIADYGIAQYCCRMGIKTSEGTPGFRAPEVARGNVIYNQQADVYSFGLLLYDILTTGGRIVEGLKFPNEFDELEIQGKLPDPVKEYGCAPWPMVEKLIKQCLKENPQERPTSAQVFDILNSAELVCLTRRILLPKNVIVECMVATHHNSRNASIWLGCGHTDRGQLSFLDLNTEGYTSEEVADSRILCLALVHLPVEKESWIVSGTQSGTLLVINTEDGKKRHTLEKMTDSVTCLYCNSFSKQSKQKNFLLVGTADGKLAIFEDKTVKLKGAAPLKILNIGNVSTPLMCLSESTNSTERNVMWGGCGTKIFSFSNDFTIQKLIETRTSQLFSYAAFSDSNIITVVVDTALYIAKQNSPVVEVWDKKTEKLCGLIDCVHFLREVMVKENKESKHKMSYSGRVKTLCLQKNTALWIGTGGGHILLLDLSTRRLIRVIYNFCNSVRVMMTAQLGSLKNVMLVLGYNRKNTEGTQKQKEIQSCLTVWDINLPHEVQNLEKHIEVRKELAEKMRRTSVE
On to K82A, for which the “effect of a mutation on the interaction” value is on record as “decreasing interaction”.

The values above are taken from IntAct's records for PubMed 20067578.
